As usually defined, the Kd is the free concentration of one partner at which half of the binding sites on the other are occupied at equilibrium, for simple one-to-one binding. What is called koff is the rate constant with which the complex falls apart. The term kon denotes a measure of how fast the partners come together.

The results in this text go back to patent US20190119366A1 (ADC THERAPEUTICS, published 2019).

T1: recombinant human KAAG1 (Kidney associated antigen 1) (human, UniProt Q9UBP8 1-84)
T1 construct: also called KAAG1 protein
T1 sequence: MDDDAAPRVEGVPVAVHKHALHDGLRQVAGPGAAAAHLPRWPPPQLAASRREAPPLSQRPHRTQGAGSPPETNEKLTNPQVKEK

B1: chimeric 3A4 anti-KAAG1 antibody (mouse variable regions, human IgG1/kappa constant regions) (antibody, V domains shown)
VH: QIQLVQSGPEMVKPGASVKMSCKASGYTFTDDYMSWVKQSHGKSLEWIGDINPYNGDTNYNQKFKGKAILTVDKSSSTAYMQLNSLTSEDSAVYYCARDPGAMDYWGQGTSVTVSS
VL: DVVMTQTPLSLAVSLGDQASISCRSSQSLLHSNGNTYLEWYLQKPGQSPKLLIHTVSNRFSGVPDRFSGSGSGTDFTLKISRVEAEDLGVYYCFQGSHVPLTFGAGTRLELKR
notes: It is treated here as the same molecule; also called LcHc; murine 3A4 (LcHc)
B2: 4A2 anti-KAAG1 antibody (antibody, V domains shown)
VH: QVKLQQSGTELVRPGASVTLSCKASGYKFTDYEMHWVKQTPVHGLEWIGGIDPETGGTAYNQKFKGKAILTADKSSTTAYMELRSLTSEDSAVYYCISYAMDYWGQGTSVTVSS
VL: DIVMTQSPSSLAMSVGQKVTMNCKSSQSLLNNSNQKNYLAWYQQKPGQSPKLLLYFASTRESGVPDRFIGSGSGTYFTLTISSVQAEDLADYFCQQHYSTPLTFGAGTKLDLK
notes: Variable regions only; Isolated from a Fab library
B3: 3E6 anti-KAAG1 antibody (antibody, V domains shown)
VH: QVQLQQSGAELVRPGASVTLSCKASGYTFSDYEMHWVKQTPVHGLEWIGGIDPETGDTVYNQKFKGKATLTADKSSSTAYMELSSLTSEDSAVYYCISYAMDYWGQGTSVTVSS
VL: DIQMTQSPSSMYASLGERVTLTCKASQDIHNYLNWFQQKPGKSPKTLIHRANRLVAGVPSRFSGSGSGQDYSLTISSLEYEDLGIYYCLQYDAFPLTFGAGTKLELK
notes: as for B2
B4: 3A2 anti-KAAG1 antibody (antibody, V domains shown)
VH: EIQLQQSGPELVKPGASVKMSCKTSGYTFTDYNMHWVKQKPGQGLEWIGYINPYNDVTEYNEKFKGRATLTSDKSSSTAYMDLSSLTSDDSAVYFCAWFGLRQWGQGTLVTVST
VL: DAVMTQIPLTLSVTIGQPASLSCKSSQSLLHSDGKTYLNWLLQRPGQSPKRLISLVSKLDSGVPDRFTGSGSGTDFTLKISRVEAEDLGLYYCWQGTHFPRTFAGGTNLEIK
notes: as for B2
B5: 3F6 anti-KAAG1 antibody (antibody, V domains shown)
VH: EVQLQQSGPELVKPGASVKMSCKASGYIFTEYNIHWVKQKPGQGPEWIGNINPYNDVTEYNEKFKGKATLTSDKASSTAYMDLSSLTSEDSAVYYCARWGLRNWGQGTLVTVSA
VL: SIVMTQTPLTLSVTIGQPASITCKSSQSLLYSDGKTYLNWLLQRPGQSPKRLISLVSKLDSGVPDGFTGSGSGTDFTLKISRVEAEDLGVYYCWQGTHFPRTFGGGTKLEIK
notes: as for B2
B6: 3E8 anti-KAAG1 antibody (antibody, V domains shown)
VH: EVQLQQSVPELVKPGASVKMSCKTSGYTFTEYNMHWVKQKPGQGPEWIGNINPYNNVTEYNEKFKGKATLTSDKSSSTAYLDLSSLTSEDSAVYYCARWGLRNWGQGTLVTVSA
VL: not shown
notes: as for B2
B7: 3D1 anti-KAAG1 antibody (antibody, V domains shown)
VH: EVQLQESGPDLVKPSQSLSLTCTVTGFSITSGYGWHWIRQFPGDKLEWMGYISFNGDYNYNPSLKSRISITRDTSKNQFFLQLSSVTTEDTATYYCASSYDGLFAYWGQGTLVTVSA
VL: DIKMTQSPSSMYASLGERVTITCKASQDIHTYLNWFQQKPGKSPETLIYRANRLVDGVPSRFSGSGSGQDYSLTISSLEYEDMGIYYCLQYDEFPLTFGAGTKLELK
notes: as for B2
B8: 3C4 anti-KAAG1 antibody (antibody, V domains shown)
VH: EVQLQESGPDLVKPSQSLSLTCTVTGFSITSGYGWHWIRQFPGNKLEWMGYINYDGHNDYNPSLKSRISITQDTSKNQFFLQLNSVTTEDTATYYCASSYDGLFAYWGQGTLVTVSA
VL: DIVMSQSPSSMYASLGERVTITCKASQDIHNFLNWFQQKPGKSPKTLIFRANRLVDGVPSRFSGSGSGQDYSLTISSLEFEDLGIYSCLQYDEIPLTFGAGTKLELR
B9: 3C2 anti-KAAG1 antibody (antibody, V domains shown)
VH: DVQLQESGPDLVKPSQSLSLTCTVTGFSITSGYGWHWIRQFPGNKLEWMGYISFNGDSNYNPSLKSRISITRDTSKNQFFLQLNSVTSEDTATYYCASSYDGLFAYWGQGPLVTVSA
VL: DIQMTQSPSSMYASLGERVTLTCKASQDIHNYLNWFQQKPGKSPKTLIHRANRLVAGVPSRFSGSGSGQDYSLTISSLEYEDLGIYYCLQYDAFPLTFGAGTKLELK
notes: as for B2
B10: 3D3 anti-KAAG1 antibody (antibody, V domains shown)
VH: EVQLQQSVAELVRPGASVTLSCKASGYIFTDYEIHWVKQTPVHGLEWIGVIDPETGNTAFNQKFKGKATLTADISSSTAYMELSSLTSEDSAVYYCMGYSDYWGQGTTLTVSS
VL: DIVMTQSPSSLAVSIGQKVTMNCKSSQSLLNSNFQKNFLAWYQQKPGQSPKLLIYFASTRESSIPDRFIGSGSGTDFTLTISSVQAEDLADYFCQQHYSTPLTFGAGTKLELK
B11: 3G12 anti-KAAG1 antibody (antibody, V domains shown)
VH: EVQLQQSVAELVRPGASVTVSCKASGYIFTDYEIHWVKQTPAHGLEWIGVIDPETGNTAFNQKFKGKATLTADISSSTAYMELSSLTSEDSAVYYCMGYSDYWGQGTTLTVSS
VL: DIVMTQSPKFMSTSVGDRVSITCKASQDVGTAVAWYQQKPGQSPELLIYWTSTRHTGVPDRFSGSGSGTDFTLTISSVQAEDLADYFCQQHYSIPLTFGAGTKLELR
notes: as for B2
B12: 3E12 anti-KAAG1 antibody (antibody, V domains shown)
VH: QVQLQQSEAELVKPGASVKLSCKASGYTFTDYEIHWVKQTPVHGLEWIGVIDPETGDTAYNQKFKGKATLTADKSSSTAYMELSRLTSEDSAVYYCMGHSDYWGQGTTLTVSS
VL: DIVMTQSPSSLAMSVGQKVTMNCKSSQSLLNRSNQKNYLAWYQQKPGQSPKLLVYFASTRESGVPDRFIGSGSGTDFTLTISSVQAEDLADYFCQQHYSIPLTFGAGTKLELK
notes: as for B2
B13: 3G8 anti-KAAG1 antibody (antibody, V domains shown)
VH: QVQLKQSGAELVRPGASVTLSCKASGYTFTDYEVHWVKQTPVHGLEWIGVIDPATGDTAYNQKFKGKATLTADKSSSTAYMEVSSLTSEDSAVYYCMGYSDYWGQGTTLTVSS
VL: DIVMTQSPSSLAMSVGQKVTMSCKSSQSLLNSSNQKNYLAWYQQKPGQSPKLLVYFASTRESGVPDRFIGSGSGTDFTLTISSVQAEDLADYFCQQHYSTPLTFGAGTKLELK
notes: as for B2
B14: 3E9 anti-KAAG1 antibody (antibody, V domains shown)
VH: EVQLQQSGAELVRPGASATLSCKASGYTFTDYEMHWVKQTPVHGLEWIGVIDPETGSTAYNQKFKGKATLTADKSSSTAYMELSSLTSEDSAVYYCMGYADYWGQGTTLTVSS
VL: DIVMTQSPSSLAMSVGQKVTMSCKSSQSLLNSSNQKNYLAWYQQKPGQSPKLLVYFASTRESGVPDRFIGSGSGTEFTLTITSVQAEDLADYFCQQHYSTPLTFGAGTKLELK
notes: as for B2
B15: 3B11 anti-KAAG1 antibody (antibody, V domains shown)
VH: EVQLQQSVAELVRPGASVTLSCKASGYTFTDYEMHWVKQTPVRGLEWIGVIDPATGDTAYNQKFKGKATLTADKSSSAAFMELSSLTSEDSAVYYCMGYSDYWGQGTTLTVSS
VL: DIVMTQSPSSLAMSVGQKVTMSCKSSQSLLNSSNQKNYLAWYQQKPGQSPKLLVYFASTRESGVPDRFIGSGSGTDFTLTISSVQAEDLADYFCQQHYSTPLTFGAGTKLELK
notes: as for B2
B16: 3F4 anti-KAAG1 antibody (antibody, V domains shown)
VH: EVQLQQSGAELVRPGASVTLSCKASGYTFTDYEIHWVKQTPVHGLEWIGVIDPETGSTAYNQKFKGKATLTADKASSTAYMELSSLTSEDSAVYYCMGYSDYWGQGTTLTVSS
VL: DIVMTQSPSSLTVTAGEKVTMSCKSSQSLLNTSNQKNYLAWYQQKPGQSPKLLVYFASTRASGVPDRFIGSGSGTDFTLTISSVQAEDLADYFCQQHYSTPLTFGAGTKLELK
notes: as for B2
B17: 3B1 anti-KAAG1 antibody (antibody, V domains shown)
VH: QVQLQQPGAELVRPGASVTLSCKASGYTFTDYEIHWVKQTPVHGLEWIGVIDPETGGTAYNQKFKGKATLTTDKSSSTAYMELRSLTSEDSAVYYCMGYSDYWGQGTTLTVSS
VL: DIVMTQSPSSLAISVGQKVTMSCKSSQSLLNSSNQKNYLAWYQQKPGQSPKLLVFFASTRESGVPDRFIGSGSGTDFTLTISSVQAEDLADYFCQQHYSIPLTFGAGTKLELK
notes: as for B2
B18: 3C3 anti-KAAG1 antibody (antibody, V domains shown)
VH: EVQLQQSVAEVVRPGASVTLSCKASGYTFTDYEIHWVKQTPVHGLEWIGVIDPETGVTAYNQRFRDKATLTTDKSSSTAYMELSSLTSEDSAVYFCMGYSDYWGQGTTLTVSS
VL: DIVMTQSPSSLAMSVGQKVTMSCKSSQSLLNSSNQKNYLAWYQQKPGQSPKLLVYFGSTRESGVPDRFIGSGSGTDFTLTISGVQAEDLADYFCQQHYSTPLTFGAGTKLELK
notes: as for B2
B19: 3B8 anti-KAAG1 antibody (antibody, V domains shown)
VH: EVQLQQSGAELVRPGASVTLSCKASGYTFTDYEIHWVKQTPVHGLEWIGVIDPETGDTAYNQNFTGKATLTADKSSSTAYMELSSLTSEDSAVYYCMGYADYWGQGTTLTVSS
VL: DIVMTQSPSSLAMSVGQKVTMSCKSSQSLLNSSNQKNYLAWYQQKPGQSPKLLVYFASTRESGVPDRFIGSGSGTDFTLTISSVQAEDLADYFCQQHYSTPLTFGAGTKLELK
notes: as for B2
B20: 3F10 anti-KAAG1 antibody (antibody, V domains shown)
VH: EVQLQQSVAELVRPGAPVTLSCKASGYTFTDYEVHWVKQTPVHGLEWIGVIDPETGATAYNQKFKGKATLTADKSSSAAYMELSRLTSEDSAVYYCMSYSDYWGQGTTLTVSS
VL: DIVMTQSPSSLTMSVGQKVTMSCKSSQSLLNTSNQLNYLAWYQQKPGQSPKLLVYFASTTESGVPDRFIGSGSGTDFTLTISSVQAEDLADYFCQQHYSTPLTFGAGTKLELK
notes: as for B2
B21: 3F7 anti-KAAG1 antibody (antibody, V domains shown)
VH: QAYLQQSGAELVRPGASVTLSCKASGYTFTDYEIHWVKQTPVHGLEWIGVIDPETGDTAYNQKFKDKATLTADKASSTAYMELSSLTSEDSAVYYCMGYSDYWGQGTTLTVSS
VL: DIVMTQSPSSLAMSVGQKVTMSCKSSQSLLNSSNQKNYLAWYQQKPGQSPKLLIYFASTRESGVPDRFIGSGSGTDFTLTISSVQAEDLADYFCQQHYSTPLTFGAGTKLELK
notes: as for B2
B22: 3G5 anti-KAAG1 antibody (antibody, V domains shown)
VH: QVQLQQPGAELVRPGASVTLSCKASGYTFTDYEIHWVKQTPVHGLEWIGVLDPGTGRTAYNQKFKDKATLSADKSSSTAYMELSSLTSEDSAVYYCMSYSDYWGPGTTLTVSS
VL: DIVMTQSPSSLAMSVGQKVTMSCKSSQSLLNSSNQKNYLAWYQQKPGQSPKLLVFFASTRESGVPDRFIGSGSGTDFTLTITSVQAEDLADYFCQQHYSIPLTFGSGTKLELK
notes: as for B2

The target of the first assay is T1, recombinant human KAAG1 (Kidney …). As to the kind of experiment: SPR (BioRad ProteOn XPR36): antibody captured on an anti-human IgG Fc surface, KAAG1 injected as analyte, 1:1 Langmuir fit. As for the experimental part: Immediately after the activation, a 13 μg/mL solution of anti-human IgG Fc fragment specific in 10 mM NaOAc pH 4.5 was injected in the analyte direction at a flow rate of 25 μL/min until approximately 8000 resonance units (RUs) were immobilized. Remaining active groups were quenched by a 300 s injection of 1M ethanolamine at 30 μL/min in the analyte direction, and this also ensures mock-activated interspots are created for blank referencing. The screening of the 3A4 variants for binding to KAAG1 occurred in two steps: an indirect capture of 3A4 variants from cell supernatant onto the anti-human IgG Fc fragment specific surface in the ligand direction(vertical) followed by a KAAG1 injection in the analyte direction. Firstly, one buffer injection for 30 s at 100 uL/min in the ligand direction was used to stabilize the baseline. […] Four to five 3A4 variants along with wild-type 3A4 were simultaneously injected in individual ligand channels for 240 s at flow 25 μL/min. […] The first ligand channel was left empty to use as a blank control if required. This 3A4 capture step was immediately followed by two buffer injections in the analyte direction to stabilize the baseline, and then the gel filtration purified KAAG1 was injected. For a typical screen, five KAAG1 concentrations (8, 2.66, 0.89, 0.29, and 0.098 nM) and buffer control were simultaneously injected in individual analyte channels at 50 μL/min for 120 s with a 600s dissociation phase, resulting in a set of binding sensorgrams with a buffer reference for each of the captured 3A4 variants. The anti-human IgG Fc fragment specific—3A4 complexes were regenerated by a 18 s pulse of 0.85% phosphoric acid for 18 s at 100 μL/min to prepare the anti-human IgG Fc fragment specific surface for the next injection cycle. Sensorgrams were aligned and double-referenced using the buffer blank injection and interspots, and the resulting sensorgrams were analyzed using ProteOn Manager software v3.0.
On to B1, for which the Kd was determined as 0.016 nM, the koff worked out at 0.000121 s⁻¹ and the kon is 7.72e+06 M⁻¹ s⁻¹.

A further assay shares this target. As to the kind of experiment: not described; list of antibodies generated.
For B2, the binding result was “binds”.
Still for that read-out and setting: the entry for B3 is “binds”; for B4 it is “binds”.
For B5, the binding result is “binds”.
Take B6: the binding result is on record as “binds”.
As for B7, the binding result was “binds”.
On the same count and under the same terms, the entry for B8 is “binds”.
Turning to B9, the binding result is reported as “binds”.
For B10, the binding result is listed as “binds”.
Take B11: the binding result was “binds”.
In the case of B12, the binding result was “binds”.
Take B13: the binding result is “binds”.
Still for that read-out and setting: the entry for B14 is “binds”; for B15 it is “binds”; for B16 it is “binds”.
As for B17, the binding result is recorded as “binds”.
B18: the binding result was “binds”.
As to B19, the binding result is reported as “binds”.
Turning to B20, the binding result is “binds”.
As to B21, the binding result is recorded as “binds”.
For B22, the binding result is given as “binds”.
